Reference: patent publication US20120184718A1

Biological target: human FAS polypeptide (human) (UniProt P25445)
Assay: cell-based or functional assay

Chain of UniProt P25445 (P25445 26-335 limits assumed): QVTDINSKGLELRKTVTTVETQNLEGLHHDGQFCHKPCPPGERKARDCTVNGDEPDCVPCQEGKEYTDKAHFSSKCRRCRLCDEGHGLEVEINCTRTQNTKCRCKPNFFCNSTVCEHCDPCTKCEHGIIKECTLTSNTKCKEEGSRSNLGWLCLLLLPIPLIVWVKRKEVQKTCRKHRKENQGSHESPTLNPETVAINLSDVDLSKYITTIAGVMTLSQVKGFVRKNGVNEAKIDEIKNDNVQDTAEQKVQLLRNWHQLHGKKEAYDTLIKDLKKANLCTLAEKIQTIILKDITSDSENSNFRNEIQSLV

apoptosis (DNA fragmentation), U87-MG cells, 24 hours, cross-linked antibody (fold of cross-linked ApomAb): 2
Substance: HFE7A IgG (antibody)
